Results as given in the supplement of paper PMC7877785.
± gives the uncertainty stated by the source.

Assay: self-splicing fitness, log relative to wild type (ln ratio); higher = more splicing; Tetrahymena group I intron in knt gene, E. coli kanamycin selection, DiMSum; sequences stand for … in CUCUCU…GGAGGGAAAAGUUAUCAGGCAUGCACCUGGUAGCUAGUCUUUAAACCAAUAGAUUGCAUCGGUUUAAAAGGCAAGACCGUCAAAUUGCGGGAAAGGGGUCAACAGCCGUUCAGUACCAAGUCUCAGGGGAAACUUUGAGAUGGCCUUGCAAAGGGUAUGGUAAUAAGCUGACGGACAUGGUCCUAACCACGCAGCCAAGUCCUAAGUCAACAGAUCUUCUGUUGAUAUGGAUGCAGUUCACAGACUAAAUGUCGGUCGGGGAAGAUGUAUUCUUCUCAUAAGAUAUAGUCGGACCUCUCCUUAAUGGGAGCUAGCGGAUGAAGUGAUGCAACACUGGAGCCGCUGGGAACUAAUUUGUAUGCGAAAGUAUAUUGAUUAGUUUUGGAGUACUCGUGGUCG
Procedure, shortened: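 Pooled colonies went to amplicon sequencing on an Illumina HiSeq 2500 after six replicate transformations. The plates were LB agar with 100 μg/mL carbenicillin, 50 μM IPTG and 0.2% rhamnose, with or without 25 μg/mL kanamycin, incubated overnight at 37°C or 30°C. The E. coli BL21(DE3) library had all eight P1ex-region intron nucleotides randomised, the intron placed in the knt kanamycin-resistance gene on pET-22b(+). DiMSum fitness is the error-weighted combination of replicate fold changes, kanamycin against none, normalised to wild type.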

Row | Sequence | self-splicing fitness (ln) (30 °C) | self-splicing fitness (ln) (37 °C)
1 | GCGCAGCAAUAUUACGGUCA | -1.41 ± 0.12 | -1.49 ± 0.099
2 | GUCUAGCAAUAUUACGAGUG | -1.99 ± 0.1 | -1.05 ± 0.1
3 | UGUCAGCAAUAUUACGUAGA | -0.492 ± 0.057 | -0.604 ± 0.081
4 | CGUGAGCAAUAUUACGGGGG | -2.65 ± 0.29 | -3.28 ± 0.37
5 | ACUUAGCAAUAUUACGGUUU | -1.23 ± 0.11 | -0.718 ± 0.16
6 | UAGGAGCAAUAUUACGUGAC | -3 ± 0.23 | 
7 | GCAGAGCAAUAUUACGCAAG | -3.03 ± 0.16 | -2.28 ± 0.17
8 | CCAGAGCAAUAUUACGCGCG | -1.19 ± 0.1 | -0.59 ± 0.14
9 | AACUAGCAAUAUUACGGCUC | -0.662 ± 0.1 | -0.155 ± 0.11
10 | GGAGAGCAAUAUUACGCUGA | -2.98 ± 0.19 | -1.36 ± 0.24
11 | AUUGAGCAAUAUUACGAAUG | -2.9 ± 0.21 | -3.15 ± 0.3
12 | UCCGAGCAAUAUUACGUGCA | -1.45 ± 0.15 | -1.47 ± 0.12
13 | GUUAAGCAAUAUUACGCUAU |  | -0.862 ± 0.32
14 | ACCGAGCAAUAUUACGUUGG | -4.16 ± 0.27 | -2.41 ± 0.22
15 | GCAGAGCAAUAUUACGGUCU | -3.54 ± 0.25 | -2.39 ± 0.27
16 | CCCCAGCAAUAUUACGUAAU | -3.53 ± 0.11 | -1.67 ± 0.11
17 | AAACAGCAAUAUUACGUCUA | -1.21 ± 0.065 | -0.311 ± 0.07
18 | UAGAAGCAAUAUUACGGCUG | -0.338 ± 0.11 | 0.218 ± 0.15
19 | CCCUAGCAAUAUUACGACUA | -2.51 ± 0.29 | -2.21 ± 0.21
20 | UGCUAGCAAUAUUACGGCCU | 0.151 ± 0.14 | 0.383 ± 0.16

Row | Sequence | self-splicing fitness (ln) (30 °C) | self-splicing fitness (ln) (37 °C)
21 | GCCUAGCAAUAUUACGGCCA | -1.81 ± 0.33 | -1.52 ± 0.35
22 | ACAGAGCAAUAUUACGGCUG | -0.984 ± 0.096 | -0.796 ± 0.13
23 | AUACAGCAAUAUUACGAAAC |  | -3.1 ± 0.24
24 | UCGGAGCAAUAUUACGGUUU |  | -1.87 ± 0.34
25 | UACGAGCAAUAUUACGGACC | -3.28 ± 0.24 | -3.19 ± 0.43
26 | ACCGAGCAAUAUUACGGGUG | -1.43 ± 0.061 | -1.08 ± 0.068
27 | UCCCAGCAAUAUUACGUGUG | -3.46 ± 0.094 | -2.32 ± 0.093
28 | AAAGAGCAAUAUUACGAAAU | -2.67 ± 0.23 | -2.4 ± 0.24
29 | UUGAAGCAAUAUUACGGAGA | -0.684 ± 0.11 | -0.479 ± 0.15
30 | CUAAAGCAAUAUUACGGAUC | -2.3 ± 0.21 | 
31 | CAAAAGCAAUAUUACGUUUA | -2.19 ± 0.13 | -1.3 ± 0.13
32 | UGUUAGCAAUAUUACGGCAG | 0.45 ± 0.1 | -1.03 ± 0.12
33 | UAUGAGCAAUAUUACGGAAU | -3.65 ± 0.47 | -2.44 ± 0.38
34 | GUGCAGCAAUAUUACGAAAA | -2.34 ± 0.19 | -2.49 ± 0.22
35 | UACUAGCAAUAUUACGCUGG | -4.47 ± 0.39 | -1.78 ± 0.24
36 | CAAAAGCAAUAUUACGGCGC | -2.33 ± 0.13 | -1.5 ± 0.18
37 | AAAGAGCAAUAUUACGAUCA | -3.02 ± 0.21 | -1.68 ± 0.14
38 | CUAAAGCAAUAUUACGCUCA | -3.67 ± 0.25 | -2.39 ± 0.19
39 | UCAUAGCAAUAUUACGAGGU | -2.98 ± 0.24 | -3.42 ± 0.32
